Test results from patent EP2500357A2 (Abbott Laboratories, dated 2012).
Read-outs that look alike come from different tables or passages of the source. Blank lines part the entries; values can stand above or below the binder they belong to.

Columns and labels:
Experiment in all cases: cell-based or functional assay
recombinant human IL-1α [1] = biological target: T1, recombinant human IL-1α (human, UniProt P01583 113-271)
T1 sequence (looked up): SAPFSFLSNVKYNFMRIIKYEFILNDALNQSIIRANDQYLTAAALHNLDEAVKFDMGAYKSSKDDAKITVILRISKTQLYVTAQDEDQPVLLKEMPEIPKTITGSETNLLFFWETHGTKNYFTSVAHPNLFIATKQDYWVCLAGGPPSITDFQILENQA

recombinant human IL-1α [2] = biological target: T1, recombinant human IL-1α; remark: listed apart in the source
recombinant human IL-1β [3] = biological target: T2, recombinant human IL-1β (human, UniProt P01584 117-269)
recombinant human IL-1α [4] = biological target: T1, recombinant human IL-1α; remark: listed apart in the source
recombinant human IL-1β [5] = biological target: T2, recombinant human IL-1β; remark: listed apart in the source
recombinant human IL-1α [6] = biological target: T1, recombinant human IL-1α; remark: listed apart in the source
recombinant human IL-1β [7] = biological target: T2, recombinant human IL-1β; remark: listed apart in the source
recombinant human IL-1β [8] = biological target: T2, recombinant human IL-1β; remark: listed apart in the source

B3: hIL-1a/bDVD3b-Ig (bispecific antibody, human IgG1, kappa)
heavy: not shown
light: ETTVTQSPASLSMAIGEKVTIRCITSTDIDVDMNWYQQKPGEPPKLLISQGNTLRPGVPSRFSSSGSGTDFVFIIENMLSEDVADYYCLQSDNLPLTFGAGTKLELKRTVAAPDIVMTQSQRFMSTSVGDRVSVTCKASQNVGTNIAWYQQKPGQSPRALIYSASYRYSGVPDRFTGSGSGTDFTLTISNVQSVDLAEYFCQQYTRYPLTFGGGTKLEIKRTVAAPSVFIFPPSDEQLKSGTASVVCLLNNFYPREAKVQWKVDNALQSGNSQESVTEQDSKDSTYSLSSTLTLSKADYEKHKVYACEVTHQGLSSPVTKSFNRGEC
Potency (IC50), MRC-5 bioassay (recombinant human IL-1α [2]): 0.7 nM

B4: hIL-1a/bDVD2-Ig (bispecific antibody, human IgG1, kappa)
heavy: not shown
light: NIVLTQSPASLAVSLGQRATISCRASESVDSYGNSYMHWYQQKPGQPPKLLIYLASNLESGVPARFSGSGSRTDFTLTIDPVEADDAATYYCQQNNEDPFTFGSGTKLEIKRADAAPNIQMTQTTSSLSASLGDRVTISCRASQDISNCLNWYQQKPDGTVKLLIYYTSRLHSGVPSRFSGSGSGTDYSLTISNLEQEDIATYFCQQGKTLPYAFGGGTKLEINRTVAAPSVFIFPPSDEQLKSGTASVVCLLNNFYPREAKVQWKVDNALQSGNSQESVTEQDSKDSTYSLSSTLTLSKADYEKHKVYACEVTHQGLSSPVTKSFNRGEC
dual-inhibition activity, IL-8 synthesis by MRC-5 cells with both IL-1α and IL-1β present (recombinant human IL-1α [4]): 1.2 nM
neutralizing activity against hIL-1α relative to the chimeric Abs (recombinant human IL-1α [4]): 3 fold
dual-inhibition activity, IL-8 synthesis by MRC-5 cells with both IL-1α and IL-1β present (recombinant human IL-1β [5]): 1.2 nM
neutralizing activity to hIL-1β relative to DVD1-Ig (recombinant human IL-1β [5]): 3 fold
Potency (IC50), MRC-5 bioassay (recombinant human IL-1α [6]): 2.9 nM
Potency (IC50), MRC-5 bioassay (recombinant human IL-1β [7]): 1.6 nM

B7: hIL-1a/bDVD6a-Ig (bispecific antibody, human IgG1, kappa)
heavy: not shown
light: QIVLTQSPALMSASPGEKVTMTCSASSSVNYMYWYQQKPRSSPKPWIYLTSNLASGVPARFSGSGSGTSYSLTISSMEAEDAATYYCQQWNSNPYTFGGGTKLEMKRTVAAPSVFIFPPQIVLTQSPAIMSASPGEKVTITCSASSSVSYMHWFQQKPGASPKLWIYSTSNLASGVPARFSGSGSGTSYSLTVSRMEAEDAATYYCQQRSTYPYTFGGGTKLEIKRTVAAPSVFIFPPSDEQLKSGTASVVCLLNNFYPREAKVQWKVDNALQSGNSQESVTEQDSKDSTYSLSSTLTLSKADYEKHKVYACEVTHQGLSSPVTKSFNRGEC
Potency (IC50), MRC-5 bioassay (recombinant human IL-1α [2]): 2.3 nM
Potency (IC50), MRC-5 bioassay (recombinant human IL-1β [3]): 70 nM

B8: hIL-1a/bDVD5a-Ig (bispecific antibody, human IgG1, kappa)
heavy: not shown
light: QIVLTQSPALMSASPGEKVTMTCSASSSVNYMYWYQQKPRSSPKPWIYLTSNLASGVPARFSGSGSGTSYSLTISSMEAEDAATYYCQQWNSNPYTFGGGTKLEMKRTVAAPQIVLTQSPAIMSASPGEKVTITCSASSSVSYMHWFQQKPGASPKLWIYSTSNLASGVPARFSGSGSGTSYSLTVSRMEAEDAATYYCQQRSTYPYTFGGGTKLEIKRTVAAPSVFIFPPSDEQLKSGTASVVCLLNNFYPREAKVQWKVDNALQSGNSQESVTEQDSKDSTYSLSSTLTLSKADYEKHKVYACEVTHQGLSSPVTKSFNRGEC
Potency (IC50), MRC-5 bioassay (recombinant human IL-1α [2]): 2.6 nM
Potency (IC50), MRC-5 bioassay (recombinant human IL-1β [3]): 19 nM

B9: hIL-1a/bDVD6b-Ig (bispecific antibody, human IgG1, kappa)
heavy: not shown
light: QIVLTQSPAIMSASPGEKVTITCSASSSVSYMHWFQQKPGASPKLWIYSTSNLASGVPARFSGSGSGTSYSLTVSRMEAEDAATYYCQQRSTYPYTFGGGTKLEIKRTVAAPSVFIFPPQIVLTQSPALMSASPGEKVTMTCSASSSVNYMYWYQQKPRSSPKPWIYLTSNLASGVPARFSGSGSGTSYSLTISSMEAEDAATYYCQQWNSNPYTFGGGTKLEMKRTVAAPSVFIFPPSDEQLKSGTASVVCLLNNFYPREAKVQWKVDNALQSGNSQESVTEQDSKDSTYSLSSTLTLSKADYEKHKVYACEVTHQGLSSPVTKSFNRGEC
Potency (IC50), MRC-5 bioassay (recombinant human IL-1α [2]): 1 nM
Potency (IC50), MRC-5 bioassay (recombinant human IL-1β [3]): 0.75 nM

B10: chimeric 13F5.G5 Ab (13F5.G5-VH-Cγ1 / 13F5.G5-VL-Cκ) (antibody, V domains shown)
VH: QVQLQQSGAELVRPGSSVKISCKASGYAFSSYWMNWVKQRPGQGLEWIGQIYPGDGDTNYNGKFKGKATLTADKSSSTSYMQLSGLTSEDSAMYFCVRFPTGNDYYAMDYWGQGTSVTVSS
VL: NIVLTQSPASLAVSLGQRATISCRASESVDSYGNSYMHWYQQKPGQPPKLLIYLASNLESGVPARFSGSGSRTDFTLTIDPVEADDAATYYCQQNNEDPFTFGSGTKLEIKR
Potency (IC50), MRC-5 bioassay (recombinant human IL-1β [7]): 0.53 nM

B12: chimeric 3D12.E3 Ab (3D12.E3-VH-hCγ1 / 3D12.E3-VL-hCk) (antibody, V domains shown)
VH: QIQLVQSGPELKKPGETVKISCKASGYTFRNYGMNWVKQAPGKDLKRMAWINTYTGESTYADDFKGRFAFSLETSASTAYLQINNLKNEDTATYFCARGIYYYGSSYAMDYWGQGTSVTVSS
VL: NIQMTQTTSSLSASLGDRVTISCRASQDISNCLNWYQQKPDGTVKLLIYYTSRLHSGVPSRFSGSGSGTDYSLTISNLEQEDIATYFCQQGKTLPYAFGGGTKLEINR
Potency (IC50), MRC-5 bioassay (recombinant human IL-1α [6]): 0.7 nM

B13: hIL-1a/bDVD4b-Ig (bispecific antibody, human IgG1, kappa)
heavy: not shown
light: ETTVTQSPASLSMAIGEKVTIRCITSTDIDVDMNWYQQKPGEPPKLLISQGNTLRPGVPSRFSSSGSGTDFVFIIENMLSEDVADYYCLQSDNLPLTFGAGTKLELKRTVAAPSVFIFPPDIVMTQSQRFMSTSVGDRVSVTCKASQNVGTNIAWYQQKPGQSPRALIYSASYRYSGVPDRFTGSGSGTDFTLTISNVQSVDLAEYFCQQYTRYPLTFGGGTKLEIKRTVAAPSVFIFPPSDEQLKSGTASVVCLLNNFYPREAKVQWKVDNALQSGNSQESVTEQDSKDSTYSLSSTLTLSKADYEKHKVYACEVTHQGLSSPVTKSFNRGEC
Potency (IC50), MRC-5 bioassay (recombinant human IL-1α [2]): 0.35 nM
Potency (IC50), MRC-5 bioassay (recombinant human IL-1β [3]): 0.5 nM

Other lines, results leading:

IC50, inhibition of IL-8 production by MRC-5 cells (recombinant human IL-1α [1]): 0.24 nM
IC50, MRC-5 bioassay (recombinant human IL-1α [2]): 0.24 nM
B1: murine anti-hIL-1α mAb 6H3.1A4.3E11 (antibody, V domains shown)
VH: QVQLQQPGAELVRPGASVKLSCKASGYTFTTYWMNWVKQRPEQGLEWIGRIDPYDSETLYSQKFKDTAILTVDKSSSTAYMQLSSLTSEDSAVYYCARYGFDYWGQGTTLTVSS
VL: QIVLTQSPALMSASPGEKVTMTCSASSSVNYMYWYQQKPRSSPKPWIYLTSNLASGVPARFSGSGSGTSYSLTISSMEAEDAATYYCQQWNSNPYTFGGGTKLEMKR

Potency (IC50), MRC-5 bioassay (recombinant human IL-1α [2]): 0.35 nM
Potency (IC50), MRC-5 bioassay (recombinant human IL-1β [3]): 10 nM
B2: hIL-1a/bDVD4a-Ig (bispecific antibody, human IgG1, kappa)
heavy: not shown
light: DIVMTQSQRFMSTSVGDRVSVTCKASQNVGTNIAWYQQKPGQSPRALIYSASYRYSGVPDRFTGSGSGTDFTLTISNVQSVDLAEYFCQQYTRYPLTFGGGTKLEIKRTVAAPSVFIFPPETTVTQSPASLSMAIGEKVTIRCITSTDIDVDMNWYQQKPGEPPKLLISQGNTLRPGVPSRFSSSGSGTDFVFIIENMLSEDVADYYCLQSDNLPLTFGAGTKLELKRTVAAPSVFIFPPSDEQLKSGTASVVCLLNNFYPREAKVQWKVDNALQSGNSQESVTEQDSKDSTYSLSSTLTLSKADYEKHKVYACEVTHQGLSSPVTKSFNRGEC

Potency (IC50), MRC-5 bioassay (recombinant human IL-1α [2]): 3.3 nM
Potency (IC50), MRC-5 bioassay (recombinant human IL-1β [3]): 0.25 nM
B5: hIL-1a/bDVD5b-Ig (bispecific antibody, human IgG1, kappa)
heavy: not shown
light: QIVLTQSPAIMSASPGEKVTITCSASSSVSYMHWFQQKPGASPKLWIYSTSNLASGVPARFSGSGSGTSYSLTVSRMEAEDAATYYCQQRSTYPYTFGGGTKLEIKRTVAAPQIVLTQSPALMSASPGEKVTMTCSASSSVNYMYWYQQKPRSSPKPWIYLTSNLASGVPARFSGSGSGTSYSLTISSMEAEDAATYYCQQWNSNPYTFGGGTKLEMKRTVAAPSVFIFPPSDEQLKSGTASVVCLLNNFYPREAKVQWKVDNALQSGNSQESVTEQDSKDSTYSLSSTLTLSKADYEKHKVYACEVTHQGLSSPVTKSFNRGEC

IC50, inhibition of IL-8 production by MRC-5 cells (recombinant human IL-1β [8]): 0.53 nM
IC50, MRC-5 bioassay (recombinant human IL-1β [3]): 0.6 nM
B6: murine anti-hIL-1β mAb 1B12.4H4 (antibody, V domains shown)
VH: QVHLKESGPGLVAPSQSLSITCTVSGFSLTDYGVSWIRQPPGKGLEWLGLIWGGGDTYYNSPLKSRLSIRKDNSKSQVFLKMNSLQTDDTAVYYCAKQRTLWGYDLYGMDYWGQGTSVTVSS
VL: ETTVTQSPASLSMAIGEKVTIRCITSTDIDVDMNWYQQKPGEPPKLLISQGNTLRPGVPSRFSSSGSGTDFVFIIENMLSEDVADYYCLQSDNLPLTFGAGTKLELKR

IC50, inhibition of IL-8 production by MRC-5 cells (recombinant human IL-1α [1]): 0.67 nM
Potency (IC50), MRC-5 bioassay (recombinant human IL-1α [6]): 0.67 nM
B11: murine anti-hIL-1α mAb 3D12.E3 (antibody, V domains shown)
VH: QIQLVQSGPELKKPGETVKISCKASGYTFRNYGMNWVKQAPGKDLKRMAWINTYTGESTYADDFKGRFAFSLETSASTAYLQINNLKNEDTATYFCARGIYYYGSSYAMDYWGQGTSVTVSS
VL: NIQMTQTTSSLSASLGDRVTISCRASQDISNCLNWYQQKPDGTVKLLIYYTSRLHSGVPSRFSGSGSGTDYSLTISNLEQEDIATYFCQQGKTLPYAFGGGTKLEINR

IC50, inhibition of IL-8 production by MRC-5 cells (recombinant human IL-1α [1]): 0.089 nM
IC50, MRC-5 bioassay (recombinant human IL-1α [2]): 0.33 nM
B14: murine anti-hIL-1α mAb 18F4.2C8 (antibody, V domains shown)
VH: EVQLQQSGAELVKPGASVKLSCTASGLNIKDTYMHWLKQRPEQGLEWIGRIDPANGNAKYDPRFLGKATITADTSSNTAYLQLSSLTSEDTAVYYCARGDGNFHFDYWGQGTTLTVSS
VL: DIVMTQSQRFMSTSVGDRVSVTCKASQNVGTNIAWYQQKPGQSPRALIYSASYRYSGVPDRFTGSGSGTDFTLTISNVQSVDLAEYFCQQYTRYPLTFGGGTKLEIKR

Potency (IC50), MRC-5 bioassay (recombinant human IL-1α [2]): 0.75 nM
B15: hIL-1a/bDVD3a-Ig (bispecific antibody, human IgG1, kappa)
heavy: not shown
light: DIVMTQSQRFMSTSVGDRVSVTCKASQNVGTNIAWYQQKPGQSPRALIYSASYRYSGVPDRFTGSGSGTDFTLTISNVQSVDLAEYFCQQYTRYPLTFGGGTKLEIKRTVAAPETTVTQSPASLSMAIGEKVTIRCITSTDIDVDMNWYQQKPGEPPKLLISQGNTLRPGVPSRFSSSGSGTDFVFIIENMLSEDVADYYCLQSDNLPLTFGAGTKLELKRTVAAPSVFIFPPSDEQLKSGTASVVCLLNNFYPREAKVQWKVDNALQSGNSQESVTEQDSKDSTYSLSSTLTLSKADYEKHKVYACEVTHQGLSSPVTKSFNRGEC
